From US20260232828A1, “LIGAND-CYTOTOXICITY DRUG CONJUGATES AND PHARMACEUTICAL USES THEREOF” (HANSOH BIO LLC, priority 2023, published 2026) come the findings set out here.

For assay [1], the target named is human CDH17 His Tag (Sino biological, catalog number 11360-H08H) (human) (UniProt Q12864). In words: Octet BLI, antibody on AHC biosensor, antigen in solution. (In general: Biolayer interferometry detects binding as a change in optical thickness at a sensor tip.)
The target in assay [2] is human CDH17 as originally expressed in cells (cell surface CDH17 on AsPC1, GP2d and other cancer cell lines) (human) (UniProt Q12864). As to the kind of experiment: flow cytometry competition on AsPC1 cells: unlabelled HBMAB81 0.03-1800 nM against 0.97 nM HBMAB81-AF647, MFI. Background: A flow cytometer gives signals particle by particle.
The target in assay [3] is T1, BSA (UniProt P02769 25-607).
T1 construct: Control coating protein of the ELISA
T1 sequence (P02769 25-607 limits assumed): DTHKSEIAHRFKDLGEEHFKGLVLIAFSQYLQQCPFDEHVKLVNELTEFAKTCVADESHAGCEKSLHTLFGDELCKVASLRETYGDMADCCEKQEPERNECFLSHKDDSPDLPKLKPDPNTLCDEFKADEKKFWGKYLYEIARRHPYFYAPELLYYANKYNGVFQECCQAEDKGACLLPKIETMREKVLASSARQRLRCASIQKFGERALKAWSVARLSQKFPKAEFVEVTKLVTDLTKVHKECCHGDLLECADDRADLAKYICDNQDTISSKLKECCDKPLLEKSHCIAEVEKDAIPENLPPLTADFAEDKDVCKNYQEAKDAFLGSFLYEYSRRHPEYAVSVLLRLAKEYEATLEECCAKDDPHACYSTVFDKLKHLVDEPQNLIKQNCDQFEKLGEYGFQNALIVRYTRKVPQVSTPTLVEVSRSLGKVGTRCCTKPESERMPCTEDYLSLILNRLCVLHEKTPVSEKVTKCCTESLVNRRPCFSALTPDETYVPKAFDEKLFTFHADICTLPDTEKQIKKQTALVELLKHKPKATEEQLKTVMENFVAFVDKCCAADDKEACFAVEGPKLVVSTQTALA
As to the kind of experiment: ELISA, plate coated with 1 µg/ml BSA, hybridoma supernatant. The method, then:
(§1) ELISA was performed using the DuoSet ELISA Ancillary Kit (R&D System, DY008). ELISA plates were coated with 1 μg/ml of human CDH17 His Tag (Sino biological, catalog number 11360-H08H), or BSA overnight. Excess unbound proteins were washed off by washing the plates three times with the wash buffer before blocking for 1 hour at room temperature. 100 μl CDH17 hybridoma supernatant was added in each well and incubated for 1 hour at room temperature. Excess unbound antibodies were washed off and 100 μl of 1:30000 diluted secondary antibody Goat anti-mouse IgG Fc-HRP (ab5870) was added to each well for another 1 hour. Plates were washed before the addition 50 μL of […] (color A and color B) according to manufacturer's protocol. The reactions were stopped using 25 μL of stop solution. Optical density at 450 nm of samples was measured by a microplate reader (PerkinElmer).
Background: ELISA stands for enzyme-linked immunosorbent assay.

The target of assay [4] is T2, human CDH17 His Tag (Sino biological, catalog number 11360-H08H) (human, UniProt Q12864 23-787).
T2 construct: Bought recombinant protein; also called hCDH17; human CDH17 protein; not shown: His tag
As to the kind of experiment: ELISA, plate coated with 1 µg/ml human CDH17 His Tag, hybridoma supernatant. The method, then: as §1

Assay [5] concerns the target T1, BSA. As to the kind of experiment: ELISA, plate coated with BSA, hybridoma supernatant. On the procedure:
as §1

Assay [6] addresses cynomolgus CDH17-His tag (Acro Biosystems, catalog number CA7-C52H4) (cynomolgus). As to the kind of experiment: Octet BLI, antibody on AHC biosensor, antigen in solution.
Assay [7] addresses T3, human CDH17 as originally expressed in cells (cell surface CDH17 on AsPC1, GP2d and other cancer cell lines) (human, UniProt Q12864 23-832). As to the kind of experiment: cell-based or functional assay.
In assay [8] the target is T2, human CDH17 His Tag (Sino biological, …). In words: Octet BLI, antibody on AHC biosensor, antigen in solution. On the procedure:
(§2) The affinity between CDH17 antibodies and CDH17 antigens and homologues was determined by Octet (Octet Red 384) instrument. Anti-hIgG Fc Capture (AHC) Biosensors were selected, and the sensors were balanced with buffer solution for 10 min. Subsequently, sensors were dipped into the wells containing 1 μg/ml of CDH17 lead antibodies to load onto the probes. The excess unbound antibodies were washed off. The antigen binding was performed in the wells containing serially diluted human CDH17-His tag (Sino biological, catalog number 11360-H08H), cynomolgus CDH17-His tag (Acro Biosystems, catalog number CA7-C52H4), homologs human CDH6-His tag (Acro Biosystems, catalog number CA6-H5229) and human CDH16-His tag (Sino biological, catalog number 10915-H08H), with concentration ranging from 200 nM to 3.1 nM, for 5 min. Then probes were dipped into wells containing renewed buffer to initiate the dissociation for another 15 min.

For assay [9], the target named is T3, human CDH17 as originally expressed in …. In words: flow cytometry titration on CDH17 positive AsPC1 cells. On the procedure:
(§3) To determine the binding of recombinant antibody to cell surface CDH17 receptors, cells were first harvested and resuspended in cell staining buffer (BioLegend, Cat #420201) at 1.3-1.5×10⁶ cells/mL. Then, the cells were treated with human Fc receptor blocking reagent (BioLegend, Cat #422302) on the ice for 10 min. The resulting cell suspension was aliquoted into 50 μL aliquots. […] The cells were incubated on the ice for 1 hour and then washed with cell staining buffer twice. 50 μL of secondary antibody (PE conjugated goat anti-human Fc, eBioscience™, 1:250 dilution) was added to each sample to resuspend the cells. The cells were incubated on the ice for another 20 min. Cells were subsequently washed twice with cell staining buffer and resuspended in 4% PFA to fix the cells. The samples were analyzed using iQue3 to measure the median fluorescence intensity using corresponding channels.

Assay [10] concerns the target T4, human CDH6-His tag (Acro Biosystems, catalog number CA6-H5229) (human, UniProt P55285 54-615).
T4 construct: Bought recombinant protein; also called hCDH6; not shown: His tag
T4 sequence (looked up): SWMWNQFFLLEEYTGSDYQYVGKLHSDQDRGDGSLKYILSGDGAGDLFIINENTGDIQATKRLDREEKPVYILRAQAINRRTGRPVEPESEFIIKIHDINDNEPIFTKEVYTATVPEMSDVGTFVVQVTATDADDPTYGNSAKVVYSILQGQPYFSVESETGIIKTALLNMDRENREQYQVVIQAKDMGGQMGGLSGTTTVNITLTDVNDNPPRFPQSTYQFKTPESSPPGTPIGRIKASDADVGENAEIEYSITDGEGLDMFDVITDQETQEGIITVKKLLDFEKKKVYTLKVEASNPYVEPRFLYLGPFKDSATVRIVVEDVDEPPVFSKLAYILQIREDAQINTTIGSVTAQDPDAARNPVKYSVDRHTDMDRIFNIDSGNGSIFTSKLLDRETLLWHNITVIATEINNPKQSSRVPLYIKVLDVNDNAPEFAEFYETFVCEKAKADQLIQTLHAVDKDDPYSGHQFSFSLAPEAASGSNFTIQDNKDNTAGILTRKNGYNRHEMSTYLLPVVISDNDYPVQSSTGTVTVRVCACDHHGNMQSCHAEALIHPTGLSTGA
In words: Octet BLI, antibody on AHC biosensor, antigen 200 nM to 3.1 nM. On the procedure: as §2

For assay [11], the target named is T5, human CDH16-His tag (Sino biological, catalog number 10915-H08H) (human, UniProt O75309 19-786).
T5 construct: Bought recombinant protein; also called hCDH16; not shown: His tag
T5 sequence (looked up): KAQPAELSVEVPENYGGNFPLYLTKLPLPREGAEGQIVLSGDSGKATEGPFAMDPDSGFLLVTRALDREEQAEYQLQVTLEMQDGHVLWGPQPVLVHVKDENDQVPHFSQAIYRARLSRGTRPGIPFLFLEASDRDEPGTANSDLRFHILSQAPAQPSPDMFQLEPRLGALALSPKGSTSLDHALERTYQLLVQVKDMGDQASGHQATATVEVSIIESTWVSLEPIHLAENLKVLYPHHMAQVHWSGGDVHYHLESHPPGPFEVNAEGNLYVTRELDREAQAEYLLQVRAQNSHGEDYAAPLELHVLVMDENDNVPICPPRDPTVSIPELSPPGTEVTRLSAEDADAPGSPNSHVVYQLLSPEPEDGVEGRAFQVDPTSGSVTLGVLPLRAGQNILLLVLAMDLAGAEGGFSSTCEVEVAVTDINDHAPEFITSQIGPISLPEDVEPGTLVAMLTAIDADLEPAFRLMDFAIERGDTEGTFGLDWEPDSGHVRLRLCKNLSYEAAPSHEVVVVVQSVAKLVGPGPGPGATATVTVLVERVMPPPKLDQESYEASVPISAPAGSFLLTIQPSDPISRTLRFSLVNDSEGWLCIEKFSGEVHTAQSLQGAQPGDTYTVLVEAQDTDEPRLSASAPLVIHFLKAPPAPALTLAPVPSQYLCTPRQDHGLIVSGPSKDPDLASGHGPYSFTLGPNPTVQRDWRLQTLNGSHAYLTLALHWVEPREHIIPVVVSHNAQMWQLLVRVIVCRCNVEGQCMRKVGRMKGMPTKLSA
The description is as above. The method, then:
as §2

For assay [12], the target named is T3, human CDH17 as originally expressed in …. In words: flow cytometry titration of recombinant human IgG1 on CDH17-positive AsPC1 cells, 0.001-200 nM, PE anti-human Fc, MFI. The method, then: as §3

What is called Kd is the equilibrium constant for the complex coming apart. Higher therefore signals lower affinity. The koff is the first-order rate constant of dissociation. Low readings indicate a long-lived complex, high ones a short-lived complex. As usually defined, the kon is the second-order rate constant of association. Lower therefore signals slower complex formation. In the case of “HBMAB-81, reformatted mAb with the CDH17 binding arm from bispecific antibody BI 905771 and human IgG1 backbone”, in assay [1], the Kd worked out at 4 nM, the koff stood at 0.00136 s⁻¹ and the kon is 340000 M⁻¹ s⁻¹. Further, the IC50 (read off the curve) in assay [2] worked out at 0.3 nM.

B1: 9E2 (hybridoma clone supernatant) (antibody, V domains shown)
VH: EVQLVESGGGVVRPGGSLRLSCAASGFTFDNYGMSWVRQAPGKGLEWVSGINWNGGSTYYADSVRGRFTISRDNAKNSLYLQMNSLRAEDTALYYCARGSRYNWSYDAFDIWGQGTLVTVSS
VL: DIQMTQSPSSLSASVGDRVTITCRASQGVRNALGWYQQKPGKAPKRLIYAASSLQSGVPSRFSGSGSGTEFTLTISSLQPEDFATYYCLQHNSYPFTFGPGTKVEIK
notes: Hybridoma supernatant
On to B1, for which the binding result in the assay with BSA [3] is on record as “no binding”. Besides, the OD450 in assay [4] came to 1.48 OD450; with BSA [5], 0.0429 OD450.

B2: 10E11 anti-CDH17 recombinant antibody (human IgG1) (antibody, V domains shown)
VH: EVQLVQSGTEVKKPGESLKISCKDSGYRFSSYWIGWVRQMPGKGLEWMGIIYPGDSDTRYSPSFQGQVTISADKSISTAYLQWRSLKASDTAMYYCARRGWVNYFDYWGQGTLVTVSS
VL: DIQMTQSPSSVSASVGDRVTITCRASQGISNWLGWYQQKPGKAPKLLIYAASSLQSGVPSRFSGSGSGTDFTLTISSLQPEDFATYYCQQANSFPLTFGGGTKVEIKR
For the molecule B2, the equilibrium dissociation constant (Kd) in assay [6] worked out at 15 nM; in assay [8] it was 14.2 nM; in [9], 0.1 nM. Also, the figures for the dissociation rate constant (koff) in [6] and in assay [8] were 0.0012 s⁻¹ and 0.00138 s⁻¹, respectively. Also, the on-rate constant (kon) in assay [6] amounted to 80000 M⁻¹ s⁻¹; in [8], 97500 M⁻¹ s⁻¹. The “IC50 of indirect killing assay to evaluate the internalization in AsPC1 cells” value (from here on “IC50 of indirect killing assay”) in assay [7] came out at 0.08 nM. Further, the binding result in [10] and in assay [11] was “no binding (tested: 200 nM)” in each case.

B3: 15A4 anti-CDH17 recombinant antibody (human IgG1) (antibody, V domains shown)
VH: QVQLVESGGGVVQPGRSLRLSCAASGFNFSSYGMHWVRQAPGKGLEWVAFVWYDGSNQNYADSVKGRFTISRDNSNNTLYLQMNSLRAEDTAVYYCARDRYSSGWDVFDYWGQGTLVTVSS
VL: DIQMTQSPSSVSASVGDRVTITCRASQGISSWLAWYQQKPGKAPKLLIFAASSLQSGVPSRFSGSGSGTGFTLTISSLQPEDFATYYCQQAKSFPPTFGQGTKVEIKR
The EC50 (read off the curve) is the concentration at which the effect is half-maximal. On to B3, for which the concentration for a half-maximal effect (EC50 (read off the curve)) in assay [12] was roughly 3 nM. Further, the “IC50 of indirect killing assay” value in [7] came to 1.99 nM. The same molecule yielded a Kd in assay [9] of 2.32 nM.

B4: 14B12 anti-CDH17 recombinant antibody (human IgG1) (antibody, V domains shown)
VH: QVQLQESGPGLVKPSETLSLTCTVSGGSINTYYRSWIRQPPGKGLEWIGYIYYSGNTNYNPSLKSRVTISADTSKNQFSLNLISVTAADTAMYYCARAQYGEEAFDIWGQGTLVTVSS
VL: DIQMTQSPSSLSASVGDRVTITCRASQSITTYLNWYQQKPGKAPQLLIFAASRLQTGVPSRFSGSGSGTDFTLTISSLLPGDFATYYCQQSYNTPPTFGGGTKVEIKR
For the molecule B4, the dissociation constant (Kd) in assay [6] amounted to 2.5 nM; in [8], 2.2 nM; in assay [9] it was 0.07 nM. Also, the koff in assay [6] is 0.00016 s⁻¹; in assay [8], 0.000507 s⁻¹. The kon in assay [6] amounted to 620000 M⁻¹ s⁻¹; in assay [8], 230000 M⁻¹ s⁻¹. Besides, in assay [7], the “IC50 of indirect killing assay” value is 0.09 nM. Moreover, the binding result in [10] and in assay [11] was “no binding (tested: 200 nM)” each time.

B5: 4F9 anti-CDH17 recombinant antibody (human IgG1) (antibody, V domains shown)
VH: QVQLQESGPGLVKPSGTLSLTCAVSGGSISSSNWWSWVRQPPGKGLEWIGEIYHSGSTSYNPSLKSRVTISVDKSKNQFSLKLSSVTAADTAVYYCARNDWGFPLDCWGQGTLVTVSS
VL: DIQMTQSPSSLSASVGDRVTITCRASQSISSYLNWYQQKPGKAPKLLIYAASSLQSGVPSRFSGSGSGTHFTLTISSLQPEDFATYYCQQSHNIPITFGQGTRLEIKR
B5: in assay [12], the “EC50 (read off the curve)” value was roughly 2 nM. Moreover, the “IC50 of indirect killing assay” value in [7] turned out to be 0.29 nM. For the same molecule, the Kd in assay [9] came to 1.69 nM.

B6: 4F9 (hybridoma clone supernatant) (antibody, V domains shown)
VH: QVQLQESGPGLVKPSGTLSLTCAVSGGSISSSNWWSWVRQPPGKGLEWIGEIYHSGSTSYNPSLKSRVTISVDKSKNQFSLKLSSVTAADTAVYYCARNDWGFPLDCWGQGTLVTVSS
VL: DIQMTQSPSSLSASVGDRVTITCRASQSISSYLNWYQQKPGKAPKLLIYAASSLQSGVPSRFSGSGSGTHFTLTISSLQPEDFATYYCQQSHNIPITFGQGTRLEIK
notes: Hybridoma supernatant
As for B6, the binding result with BSA [3] is given as “no binding”. Further, the OD450 in assay [4] was 1.52 OD450; with BSA [5], 0.051 OD450.
